Values of other authors as cited in publication PMC4474783.

Legend:
[1] = biological target: calreticulin (Homo sapiens) (UniProt P27797)
[2] = biological target: calnexin (Homo sapiens) (UniProt P27824)
[3] = biological target: calreticulin 189-288 (Homo sapiens) (UniProt P27797)
[4] = biological target: calnexin P-domain (Homo sapiens) (UniProt P27824); experiment: ITC

Substance	Kd [1]	Kd [2]	Kd [3]	Kd [4]
CypB (from UniProt P23284)	10 µM	10 µM		
ERp57 (from UniProt P30101)			9 µM	26 µM
